# IntAct's records for PubMed 24880343
# B1: PAN2-PAN3 deadenylation complex subunit pan3 (Neurospora crassa (strain ATCC 24698 / 74-OR23-1A / CBS 708.71 / DSM 1257 / FGSC 987)), Q7SDP4 (parent)
# chain: MAATRYNSGDLRRQVGSPRAKNRDTKETLCRNVVIYGHCRWEDSGCTFNHDQNKASVSQTDLNSNRRVFNVESPSFTPANQQQSAGKKSTFSSQAASAAPFTPRGVGTSTPTLQQANDSTIFNPAAIREFTPQNYDVGNTISQNGAQHVTQDGGLYSDPFSISSLGQTMPPQGQYNPYANDPNNLAGAGAGLYQPAGFGNGLVHPPNYHLYQPPSELYRPSLQPYQRTTYDFFIPKDRRENLQKKLFHMQQLLPNSGLPNLDRWHSLFPLDTKATRNSTCFGYPSWMYKAQNNKNGRHFALRRIEGYRLTNEKAILNVTKEWKKIINANIVTVHEAFTTEFFGDSSLIFVYDFHPLSETLYDHHFPPNNSHNRLRNTNKIPENLLWSYVCQIANALLAIHNAKLAARCLELSKIIWENNRIRLAACSILDVLHHDSPNRKTIEELQQEDFVKFGRIILALATNTPTLNFNNIDAALATIVPRYSTQLRGVLEWLIKPSAPGETKTVETLLGGITTHLANFANFVMQESDEKEFHLMRELENGRIARLMFKLSVVNERGDSCGVHNWSETGERLLLKLFRDYVFHQVDADGKARLDTNHYLNCLSKLDASSEEQILLTSRDNATVFVVSYRSIRQMLDRAYGELGKESKPSATGATI
# partner: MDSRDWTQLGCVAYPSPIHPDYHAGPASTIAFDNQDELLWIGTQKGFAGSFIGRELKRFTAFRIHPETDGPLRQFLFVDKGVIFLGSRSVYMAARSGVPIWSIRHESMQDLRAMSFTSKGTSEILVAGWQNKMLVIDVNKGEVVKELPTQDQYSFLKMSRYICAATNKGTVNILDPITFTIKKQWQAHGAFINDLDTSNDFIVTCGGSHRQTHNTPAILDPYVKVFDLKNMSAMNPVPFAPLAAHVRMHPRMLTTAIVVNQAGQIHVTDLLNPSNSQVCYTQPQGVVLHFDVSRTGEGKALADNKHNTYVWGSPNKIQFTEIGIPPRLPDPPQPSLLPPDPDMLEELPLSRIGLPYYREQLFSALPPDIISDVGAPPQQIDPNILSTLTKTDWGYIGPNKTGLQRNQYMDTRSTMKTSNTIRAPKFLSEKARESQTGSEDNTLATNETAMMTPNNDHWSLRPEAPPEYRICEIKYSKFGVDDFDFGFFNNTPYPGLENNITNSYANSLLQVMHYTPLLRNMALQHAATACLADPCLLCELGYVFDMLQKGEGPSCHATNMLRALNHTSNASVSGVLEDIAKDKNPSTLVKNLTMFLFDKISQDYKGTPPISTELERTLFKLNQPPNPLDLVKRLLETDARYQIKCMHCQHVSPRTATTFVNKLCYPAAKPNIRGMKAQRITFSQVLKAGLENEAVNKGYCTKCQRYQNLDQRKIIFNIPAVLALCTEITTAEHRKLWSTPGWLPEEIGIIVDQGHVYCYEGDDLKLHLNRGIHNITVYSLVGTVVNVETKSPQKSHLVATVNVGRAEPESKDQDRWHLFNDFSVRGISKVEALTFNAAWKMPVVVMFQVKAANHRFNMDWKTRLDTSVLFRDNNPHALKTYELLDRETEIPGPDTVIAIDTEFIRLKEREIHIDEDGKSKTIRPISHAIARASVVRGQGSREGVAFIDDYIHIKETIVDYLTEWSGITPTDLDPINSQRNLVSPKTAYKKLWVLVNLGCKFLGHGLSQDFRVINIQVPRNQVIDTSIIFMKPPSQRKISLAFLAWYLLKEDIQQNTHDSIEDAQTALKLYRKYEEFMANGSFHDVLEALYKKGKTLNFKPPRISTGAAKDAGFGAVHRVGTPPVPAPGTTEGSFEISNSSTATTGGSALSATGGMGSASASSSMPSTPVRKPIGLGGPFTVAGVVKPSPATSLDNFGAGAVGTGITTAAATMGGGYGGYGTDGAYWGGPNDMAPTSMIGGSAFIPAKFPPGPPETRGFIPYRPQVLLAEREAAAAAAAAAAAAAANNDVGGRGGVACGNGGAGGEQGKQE
# B2: PAN2-PAN3 deadenylation complex subunit PAN3 (Drosophila melanogaster (Fruit fly)), Q95RR8 (parent)
# chain: MCSTYGLLSFEFSDTAAMDPIFFSPTNGIPSESKLATYMNRQNVATPSGYGLNNGFSLLNLDSPLNKKSQVTPQSPEFIPTRLGSTPNFYAPYHNAPMQLSNGLNGVNGLTAAAAAAAAAAAAAAAAVPSSTSSASSASVTISKTANGGASMLALQKTASIASVTIAQQQPQHPQKQQQHPPSVGGGAVSAASAPIAISGAPPNPAAAPFVSSMSAQTPLKGRGAMMRQESPTAAMISGAGPGEKSPPHGMTPHGASPIPSALPTSVHQENVGGTIYFYPTANAQNSQPVVNSMVVDGTHPALHGVSAVAPMSAGVPAAMMYTGHVYPGPSSNVVTMQPKTLLESAFFMPDEMRAEVLARNEISNLIMDAAEAAQHALPLEVENYHALYPLEPPAQPLHAKLTFPATTYRATHNTTGYKYCLRRIHGFRLQSTKCMTLVEMWKKLQHTNVVQLREVFTTKAFGDNSLVLVYDYHPGSQTLLAKYFTPAPETNGYTDPFQGEARPFSHKSNMQRTSNGPLLPEATIWSIIMQLTAGLKAIHHAGLACKVLDPTKIIVTGKRVRFSSCCISDITQFDPNASNPLALVNMHQQDDLTALGRLVLALACRCLQSVQRDNVQSSIDMVTRNYSTDLRNFIVYLFTTNNRRSVTDLMPMIGARFYTQLDALQSKIDMQEDELAKEMENGRLYRILVKLNSINERPDFNLDCTWSETGDRYMLKLFRDYLFHSVTEDGRPWLDHAHIVQCLNKLDAGSIERVQLMSRDEQSVLIVSYAELKNCLENAFSELMSSAAN
# B3: PAN2-PAN3 deadenylation complex catalytic subunit pan2 (Neurospora crassa (strain ATCC 24698 / 74-OR23-1A / CBS 708.71 / DSM 1257 / FGSC 987)), P0C581 (parent)
# chain: B1 partner
# partner: B1 chain
# Variants of: B1
# Conditions: with pan2_neucr par-1, P0C581
row,effect of a mutation on the interaction,Variant
1,disrupting interaction strength,V627E

# Variants of: B2
# Conditions: with pan2_drome PAN2, A1Z7K9
# Chain of pan2_drome PAN2, A1Z7K9 (A1Z7K9 whole entry): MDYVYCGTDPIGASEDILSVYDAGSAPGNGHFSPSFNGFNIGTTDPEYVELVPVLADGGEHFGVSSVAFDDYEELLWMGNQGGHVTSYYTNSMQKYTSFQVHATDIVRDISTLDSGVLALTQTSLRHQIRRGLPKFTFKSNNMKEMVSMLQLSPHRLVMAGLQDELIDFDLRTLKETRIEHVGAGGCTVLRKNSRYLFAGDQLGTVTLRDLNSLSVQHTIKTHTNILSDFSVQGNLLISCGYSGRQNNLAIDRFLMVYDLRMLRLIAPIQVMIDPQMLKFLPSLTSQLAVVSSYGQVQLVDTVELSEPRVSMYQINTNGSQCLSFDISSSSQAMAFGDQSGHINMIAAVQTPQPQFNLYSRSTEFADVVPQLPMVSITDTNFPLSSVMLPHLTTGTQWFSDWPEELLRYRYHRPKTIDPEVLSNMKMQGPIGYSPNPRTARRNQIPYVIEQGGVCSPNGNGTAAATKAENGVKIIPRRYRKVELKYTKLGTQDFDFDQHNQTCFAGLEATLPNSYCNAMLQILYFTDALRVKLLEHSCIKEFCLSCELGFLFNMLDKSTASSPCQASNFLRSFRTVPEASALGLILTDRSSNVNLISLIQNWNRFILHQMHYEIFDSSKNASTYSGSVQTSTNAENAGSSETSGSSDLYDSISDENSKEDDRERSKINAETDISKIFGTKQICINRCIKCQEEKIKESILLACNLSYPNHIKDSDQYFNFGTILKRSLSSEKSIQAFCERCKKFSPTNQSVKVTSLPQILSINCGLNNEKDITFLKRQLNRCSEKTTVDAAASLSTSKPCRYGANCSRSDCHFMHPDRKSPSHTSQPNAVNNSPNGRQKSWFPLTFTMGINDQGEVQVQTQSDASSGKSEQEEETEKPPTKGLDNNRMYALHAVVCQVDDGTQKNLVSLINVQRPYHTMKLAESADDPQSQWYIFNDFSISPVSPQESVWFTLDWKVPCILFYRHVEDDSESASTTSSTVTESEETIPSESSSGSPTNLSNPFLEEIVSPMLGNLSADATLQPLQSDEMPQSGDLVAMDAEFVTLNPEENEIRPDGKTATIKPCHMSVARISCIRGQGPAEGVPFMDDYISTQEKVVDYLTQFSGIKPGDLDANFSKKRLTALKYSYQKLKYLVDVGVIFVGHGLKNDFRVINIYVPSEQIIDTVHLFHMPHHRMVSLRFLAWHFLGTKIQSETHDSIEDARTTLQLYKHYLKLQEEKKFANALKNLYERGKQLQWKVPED
row,effect of a mutation on the interaction,Variant
1,decreasing interaction strength,Y722A;H739A;R754A
2,decreasing interaction strength,W707A;G711E;Y722A;H739A;R754A

# Variants of: B3
# Conditions: with pan3_neucr par-2, Q7SDP4
row,effect of a mutation on the interaction,Variant
1,disrupting interaction strength,T60R
2,disrupting interaction strength,P99R
3,disrupting interaction strength,F62E
4,disrupting interaction strength,G97E
